# Target: human alpha-thrombin (Homo sapiens, UniProt P00734;P00734 328-363;364-622)
# Assay: competition
binder,measurement,value
GGTTGGTGTGGTTGG (structured_DNA) [15nt anti-thrombin DNA aptamer],binding result,binds

# Reference: paper PMC2885824
